These results are taken from patent US6699677B1, “Tethered ligands and methods of use” (ChemoCentryx, Inc., priority 1999, dated 2004).

The target in assay [1] is T1, CCR4 (Homo sapiens, UniProt P51679).
T1 sequence (P51679 1-360): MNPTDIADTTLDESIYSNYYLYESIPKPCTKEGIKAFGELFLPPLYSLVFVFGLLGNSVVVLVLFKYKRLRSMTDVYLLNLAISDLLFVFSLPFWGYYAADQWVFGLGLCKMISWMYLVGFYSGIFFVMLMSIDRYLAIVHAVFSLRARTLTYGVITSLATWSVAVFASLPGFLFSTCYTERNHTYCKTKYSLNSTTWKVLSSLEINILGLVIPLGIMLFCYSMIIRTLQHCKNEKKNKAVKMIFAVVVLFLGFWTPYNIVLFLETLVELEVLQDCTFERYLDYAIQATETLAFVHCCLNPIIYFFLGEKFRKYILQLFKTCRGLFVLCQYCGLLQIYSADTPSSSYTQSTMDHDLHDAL
Kind of assay: Displacement of radiolabeled MDC or TARC tracer from CEM cells expressing CCR4. It counts as binding. Details: endogenous in cells; host or cells: CEM cells. Particulars: supernatants with soluble stalkokine, compared with control supernatant. As to the method: Briefly, CEM cells we added to radiolabeled chemokine “tracer” (MDC or TARC) in the presence of competitor molecules such as supernatants expressing the soluble MDC-FRAC (a stalkokine with a fractalkine stalk and an MDC ligand domain) or TARC-FRAC (a stalkokine with a fractalkine stalk and an TARC ligand domain). The cells and tracer were incubated and harvested by filtration, capturing the bound tracer. The material was then counted. “Total” is the amount of tracer bound with no competition.

Assay [2] addresses T1, CCR4. The experiment in a line: Binding of CCR4-NSO cells to immobilized stalkokines and competition by soluble chemokine. Details: host or cells: mouse myeloma NSO. As to the method:
Following, the liquid in each well was aspirated and washed once for approximately 5 minutes with 500 ul of PBS. The wells were then “blocked” (blocked for any additional protein binding sites) with the addition of 250 ul of blocking solution (2% fetal bovine serum, 0.5% BSA in PBS) and incubation for 1 hour at room temp (e.g., 20° C.). […] Each slide contained two wells with control supernatant (from mock-transfected cells) and two wells with the positive control SDF1a (which binds the ubiquitous chemokine receptor CXCR4). The four other wells were for experimental samples. The supernatants were incubated for one hour at room temperature (typically 20° C.), then incubated for an additional hour at 37° C. The supernatants were aspirated off, and each well was washed once for 5 minutes with 500 ul of PBS. The slide was then ready for addition of cells for assay.
Several types of cells were used in binding experiments to stalkokines of the invention, including transfected mouse myeloma NSO cells containing a mammalian expression vector driving expression of the receptor of interest, e.g., CCR1, CCR4, CCR6, CCR7, CCR8, CXCR4, CMV US28 (gift of R&D Systems (Minneapolis, Minn.)).
In an experiment, CCR4-NSO cells were used to test binding competition. Harvested CCR4 NSO cells were resuspended at 2×10^6 cells per ml in PBS. […] 250 ul of cells that were not pre-treated with soluble chemokine were added to additional wells. The slides were incubated for 1.5 hours at room temp, then the supernatant gently aspirated. The chamber portion of the slide was removed (using the apparatus provided by the supplier) and the slide was washed by gentle immersion into a petri dish containing PBS to a depth of 1cm. This was repeated 3 times in total, and the slide was immersed in a 1% glutaraldehyde solution (in PBS) for 5 minutes at room temperature. The cells were inspected and enumerated visually by microscopy.

In assay [3] the target is T2, CXCR4 (Homo sapiens, UniProt P61073).
T2 construct: host or cells: mouse myeloma NSO
T2 sequence (P61073 whole entry): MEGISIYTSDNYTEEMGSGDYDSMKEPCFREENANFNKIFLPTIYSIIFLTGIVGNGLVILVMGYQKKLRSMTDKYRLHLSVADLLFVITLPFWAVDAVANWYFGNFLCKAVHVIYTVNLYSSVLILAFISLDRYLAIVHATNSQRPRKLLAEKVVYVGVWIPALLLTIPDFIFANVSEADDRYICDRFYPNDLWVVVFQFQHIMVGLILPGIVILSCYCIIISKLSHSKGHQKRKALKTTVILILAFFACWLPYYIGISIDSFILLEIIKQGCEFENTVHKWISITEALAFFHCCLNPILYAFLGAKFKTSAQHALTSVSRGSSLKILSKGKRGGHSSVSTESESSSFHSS
Kind of assay: Binding of CXCR4-NSO cells to immobilized stalkokines. The protocol:
In one set of experiments, five 8 well chamber slides (Lab-Tek II, Nalge Nunc International, Rochester, N.Y.), 250 ul of 10 ug/ml anti-his antibody (R&D Systems, Minneapolis, Minn.) in PBS was added to each well and incubated at room temperature overnight (typically 16 hours). Following, the liquid in each well was aspirated and washed once for approximately 5 minutes with 500 ul of PBS. The wells were then “blocked” (blocked for any additional protein binding sites) with the addition of 250 ul of blocking solution (2% fetal bovine serum, 0.5% BSA in PBS) and incubation for 1 hour at room temp (e.g., 20° C.). The liquid in each well was aspirated and 250 ul of supernatant containing the chemokine-stalk-immobilization domain fusion proteins (SDF1a-FRAC, finetaxin-FRAC, CCL27-FRAC, 1309-FRAC, MIP3a-FRAC, ELC-FRAC, SLC-FRAC, MDC-FRAC, TARC-FRAC, or BRAK-FRAC) or the control supernatant was added to two wells. Each slide contained two wells with control supernatant (from mock-transfected cells) and two wells with the positive control SDF1a (which binds the ubiquitous chemokine receptor CXCR4). The four other wells were for experimental samples. The supernatants were incubated for one hour at room temperature (typically 20° C.), then incubated for an additional hour at 37° C. […] The slide was then ready for addition of cells for assay. […]

In assay [4] the target is T1, CCR4. Kind of assay: Calcium mobilization in INDO-1AM loaded CEM cells expressing CCR4. It counts as cell-based. Details: endogenous in cells; host or cells: CEM cells. To be noted: fusion protein supernatant added at 80 sec. The protocol: Briefly, CEM cells that express CCR4 were placed in a fluorimeter and monitored over time for changes in fluorescence. […] TARC-Fractalkine or MDC-Fractalkine (fusion protein supernatants), or control supernatants, were added at the following times: experiment 1, control supernatant added at 50 sec, TARK-FRAC at 80 sec; experiment 2, control supernatant at 50 sec and MDC-FRAC at 80 sec.

Assay [5] concerns the target T3, CCR10 (Homo sapiens, UniProt Q9NPB9).
T3 construct: Full length CCR10 expression constructs were made in pIRESpuro expression vector; expressed in transfected cells; HEK293-CCR10)
T3 sequence (Q9NPB9 1-350): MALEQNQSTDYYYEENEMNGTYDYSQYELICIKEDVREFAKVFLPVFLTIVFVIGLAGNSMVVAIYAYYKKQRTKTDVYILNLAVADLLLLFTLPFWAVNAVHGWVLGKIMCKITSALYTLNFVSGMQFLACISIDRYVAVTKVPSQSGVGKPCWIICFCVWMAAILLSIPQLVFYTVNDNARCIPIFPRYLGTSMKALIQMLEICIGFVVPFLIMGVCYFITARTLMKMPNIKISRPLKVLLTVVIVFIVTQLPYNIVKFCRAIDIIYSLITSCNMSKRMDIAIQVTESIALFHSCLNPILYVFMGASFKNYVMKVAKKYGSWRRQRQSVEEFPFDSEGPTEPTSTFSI
Kind of assay: Spectrum of ligands that bind to CCR10. The format is binding. The text has this: Furthermore ELC-SK mediated adhesion was abolished in the presence of soluble native ELC as a competitor (FIG. 3A, top row). […] Moreover, radiolabeled ELC was used in a traditional homologous competition assay in the presence of increasing concentrations of unlabeled ELC. […] Taken together, the stalkokine-based adhesion and radiolabeled ligand binding/homologous competition assays indicate that CCR10 is a new chemokine receptor that bound a novel compliment of chemokines.

The target in assay [6] is T3, CCR10. Kind of assay: Adhesion of HEK293-CCR10 cells to immobilized stalkokines, with or without soluble chemokine competitors. Particulars: stalkokine immobilized via anti-His anchoring antibody, 500,000 cells, 1.5 hrs at RT. The format is binding. As to the method: To determine ligand binding to CCR10, HEK293-CCR10 cells were used to interrogate chemokine “stalkokines” (SK), i.e., molecules in which discrete chemokine domains were engineered to be tethered to the end of an extended stalk structure. Stalkokines were interrogated using 8-well chamber slides coated first with anti-His anchoring antibody (10 ug/ml in PBS overnight at RT), which were washed and ‘blocked’ (2% FBS/0.5% BSA in PBS); treated with 250 ul of HEK293 cell stalkokine supernatants (1 hr at 37C), and incubated with 500,000 HEK293-CCR10 transfectants (1.5 hrs at RT). Inhibition of adhesion by competition with soluble chemokines was done by incubating cells with 5-10 ug/ml of recombinant chemokines. In all cases, nonadherent cells were removed by washing in PBS; remaining adherent cells were fixed with 1% glutaraldehyde, photoimaged and counted. As a primary screen, this adhesion would reveal putative receptor-ligand interactions.

B1: MDC: recombinant human chemokine, natural ligand for CCR4 (protein)
chain: GPYGANMEDSVCCRDYVRYRLPLRVVKHFYWTSDSCPRPGVVLLTFRDKEICADPRVPWVKMILNKLSQ
On to B1, for which the “Inhibition of binding of MDC or TARC tracer to CEM cells” value (shortened to “Inhibition”) in assay [1] is “maximal level of competition”. Moreover, the “Binding to Stalkokine form” value in assay [2] was “yes, yes”.

B2: FK: fractalkine, natural membrane protein with a chemokine domain tethered on a long mucin-like stalk (protein)
chain: QHHGVTKCNITCSKMTSKIPVALLIHYQQNQASCGKRAIILETRQHRLFCADPKEQWVKDAMQHLDRQAAALTRNGGTFEKQIGEVKPRTTPAAGGMDESVVLEPEATGESSSLEPTPSSQEAQRALGTSPELPTGVTGSSGTRLPPTPKAQDGGPVGTELFRVPPVSTAATWQSSAPHQPGPSLWAEAKTSEAPSTQDPSTQASTASSPAPEENAPSEGQRVWGQGQSPRPENSLEREEMGPVPAHTDAFQDWGPGSMAHVSVVPVSSEGTPSREPVASGSWTPKAEEPIHATMDPQRLGVLITPVPDAQA
As for B2, in assay [3], the “Binding to Stalkokine form” value is “yes”.

B3: TARC-FRAC: a stalkokine with a fractalkine stalk and an TARC ligand domain (protein)
chain: ARGTNVGRECCLEYFKGAIPLRKLKTWYQTSEDCSRDAIVFVTVQGRAICSDPNNKRVKNAVKYLQSLERSEFGGTFEKQIGEVKPRTTPAAGGMDESVVLEPEATGESSSLEPTPSSQEAQRALGTSPELPTGVTGSSGTRLPPTPKAQDGGPVGTELFRVPPVSTAATWQSSAPHQPGPSLWAEAKTSEAPSTQDPSTQASTASSPAPEENAPSEGQRVWGQGQSPRPENSLEREEMGPVPAHTDAFQDWGPGSMAHVSVVPVSSEGTPSREPVASGSWTPKAEEPIHATMDPQRLGVLITPVPDAQA
modifications: left off: small tags and cut ends
notes: a stalkokine with a fractalkine stalk and an TARC ligand domain
As for B3, the figures for the “Calcium influx / calcium signaling” value in assay [4] and in assay [4] (listed as TARC-Stalkokine) were “modest influx” and “induction of calcium signaling”, respectively. In assay [1], the “Inhibition” value is “significant further decrease”. The “Binding to Stalkokine form” value in assay [2] is “bound”.

B4: vMIPII: viral chemokine (protein)
chain: GDTLGASWHRPDKCCLGYQKRPLPQVLLSSWYPTSQLCSKPGVIFLTKRGRQVCADKSKDWVKKLMQQLPVTAR
For the molecule B4, the “Affinity of binding to CCR10” value in assay [5] was “lower affinity”. Moreover, the “Binding to Stalkokine form” value in assay [3] is given as “yes”.

B5: MDC-FRAC: a stalkokine with a fractalkine stalk and an MDC ligand domain (protein)
chain: GPYGANMEDSVCCRDYVRYRLPLRVVKHFYWTSDSCPRPGVVLLTFRDKEICADPRVPWVKMILNKLSQEFGGTFEKQIGEVKPRTTPAAGGMDESVVLEPEATGESSSLEPTPSSQEAQRALGTSPELPTGVTGSSGTRLPPTPKAQDGGPVGTELFRVPPVSTAATWQSSAPHQPGPSLWAEAKTSEAPSTQDPSTQASTASSPAPEENAPSEGQRVWGQGQSPRPENSLEREEMGPVPAHTDAFQDWGPGSMAHVSVVPVSSEGTPSREPVASGSWTPKAEEPIHATMDPQRLGVLITPVPDAQA
modifications: left off: small tags and cut ends
notes: a stalkokine with a fractalkine stalk and an MDC ligand domain
In the case of B5, the “Calcium influx / calcium signaling” value in assay [4] is reported as “modest influx”; in assay [4] (listed as MDC-Stalkokine), “induction of calcium signaling”. Also, the “Inhibition” value in assay [1] is “significant further decrease”. In assay [2], the “Binding to Stalkokine form” value is listed as “bound”.

B6: ELC-SK: tethered ligand fusion protein: ELC chemokine domain, human fractalkine mucin stalk, myc/poly-histidine immobilization domain (protein)
chain: GTNDAEDCCLSVTQKPIPGYIVRNFHYLLIKDGCRVPAVVFTTLRGRQLCAPPDQPWVERIIQRLQRTSAKMKRRSSEFGGTFEKQIGEVKPRTTPAAGGMDESVVLEPEATGESSSLEPTPSSQEAQRALGTSPELPTGVTGSSGTRLPPTPKAQDGGPVGTELFRVPPVSTAATWQSSAPHQPGPSLWAEAKTSEAPSTQDPSTQASTASSPAPEENAPSEGQRVWGQGQSPRPENSLEREEMGPVPAHTDAFQDWGPGSMAHVSVVPVSSEGTPSREPVASGSWTPKAEEPIHATMDPQRLGVLITPVPDAQA
modifications: left off: small tags and cut ends
With B6, the “Adhesion of HEK293-CCR10 cells to immobilized stalkokine” value is “adhered very well” in assay [6] and “strong adhesion” in assay [6] (listed as ELC-stalkokine (SK)).
